# Entries after “also recorded” stand apart in the source; their conditions may differ. Like-named read-outs stand apart in the source and are kept apart here.
# Tests used:
# [1] = cited from earlier work; for T1/2 (half-life, deamidation): buffer
# [2] = system: decapeptide RCNSGRFNGG-NH2; assay: Decapeptide accelerated stability test, potency of intact peptide by HPLC; assay type: physicochemical
# Procedure: To begin with, a decapeptide was synthesized by request at the Protein Facility of the Iowa State University Office of Biotechnology, using standard peptide synthesis methodology.
# Samples containing this decapeptide were prepared under eight different conditions at two different pH values, pH 7 and 4. […] The preparation of these samples is now described. The ratios indicated are molar ratios of organic anion to decapeptide.
# Into a sterile 15 mL plastic centrifuge tube (Corning Incorporated, Corning, N.Y.) was placed 0.0021 g decapeptide (Iowa State University, Ames, Iowa) and 7.0 g sterile water (Spectrum Chemicals Mfg. Corp., Gardena, Calif.). The pH was adjusted using 1.0N HCl (Spectrum Chemicals Mfg. Corp., Gardena, Calif.) to a pH of 4. Into a new 15 mL plastic centrifuge tube was placed 3.5 mL of a pH 4 solution. The pH was adjusted using only the necessary amount of 1.0N NaOH (Spectrum Chemicals Mfg. Corp., Gardena, Calif.) to a final pH of 7.
# (anion:asparaginyl molar ratio). […] Into a new 15 mL plastic centrifuge tube was placed 3.5 mL of a pH 4 solution. The pH was adjusted using only the necessary amount of 1.0N NaOH to a final pH of 7.
# (§1) Into a new 15 mL plastic centrifuge tube was placed 3.5 mL of a pH 4 solution. The pH was adjusted using only the necessary amount of 1.0N NaOH to a final pH of 7.
# as §1, §1
# Into a sterile 1.5 mL microcentrifuge tube was placed a 0.5 g portion of each sample condition and were placed at −18° C. This was the initial sample. The remaining pH 4 samples were placed at 65° C. until completion of the experiment. The remaining pH 7 samples were placed at 40° C. until completion of the experiment. […] This was the day 1 sample. The frozen initial and day 1 samples were thawed to room temperature, and assayed using HPLC.
# The samples at the various timepoints were then analyzed with HPLC using the following conditions.
# System: Schimadzu SCL-10A VP with diode array detector
# Column: Phenomenex C18 Luna 5 um, 250×4.6 mm
# Mobile Phase: Isocratic 90% (0.1%) TFA in water, 10% (0.08%) TFA in acetonitrile
# The potency (mg/mL of intact peptide) was determined by integrating under this peak (performed by the instrument), and normalizing according to a standard run of the decapeptide.
# The sample stressing and HPLC were applied as above.
# (anion:asparaginyl ratio). Into a sterile 15 mL plastic centrifuge tube was placed 0.0021 g decapeptide, 0.0029 g N-acetyl-D-tryptophan (MP Biomedicals, Solon, Ohio) and 7.0 g sterile water. The pH was adjusted using 1.0N HCl to a pH of 4. Into a new 15 mL plastic centrifuge tube was placed 3.5 mL of a pH 4 solution. The pH was adjusted using only the necessary amount of 1.0N NaOH to a final pH of 7. Since the molar ratio of acetyltryptophan to decapeptide is 6:1, and each decapeptide has two asparaginyl residues, the molar ratio of NAT to asparagine is 3:1.
# The pH was adjusted using only the necessary amount of 1.0N NaOH to a final pH of 7.
# [3] = accepted approximate value, dilute aqueous solution; cited from earlier work
# [4] = aqueous solution, pH 7.4, 37° C., Tris-HCl buffer
# [5] = pH 7, 24 hours at 40° C., molar ratio anion:Asn 3
Molecule,"T1/10 (time to 10% degradation by deamidation) [1, 4]",also measured
1-Antitrypsin (1QLP): human protein,6.1 days,–
"Cl [Hydrochloric, hydrochloric acid]",–,"potency remaining ([2]; pH 7, 24 hours at 40° C., HCl control, no organic anion, listed as HCl): less than 7%; potency remaining ([2]; pH 7, 24 hours at 40° C., HCl control, no organic anion, listed as hydrochloric acid control): under 7%"
"CC(=O)N[C@H](Cc1c[nH]c2ccccc12)C(=O)O [N-acetyltryptophanate, N-acetyl-D-tryptophan]",–,"potency remaining ([2]; pH 4, stressed at 65° C., anion:Asn 3:1): 74%; Relative potency [2, 5]: 1.028; Relative potency ([2]; pH 7, 24 hours at 40° C., molar ratio anion:Asn 3, listed as N-acetyltryptophan): completely retained; also recorded: no detectable degradation; pKa (first listed) [3]: 3.37"
"O=C1NS(=O)(=O)c2ccccc21 [Saccharin, 2,3-dihydro-3-oxobenzisosulfonazole]",–,"Relative potency ([2]; pH 4, 24 hours at 65° C., anion:Asn 10:1): 87%; Relative potency ([2]; pH 7, 24 hours at 40° C., molar ratio anion:Asn 1): 0.080; Relative potency ([2]; pH 7, 24 hours at 40° C., molar ratio anion:Asn 1, listed as saccharin): much less enhancement; Relative potency [2, 5]: 0.008; Relative potency ([2]; pH 7, 24 hours at 40° C., molar ratio anion:Asn 10): 0.523; Relative potency ([2]; pH 7, 24 hours at 40° C., molar ratio anion:Asn 10, listed as saccharin): enhanced stability"
"C[C@H](CCC(=O)O)[C@H]1CC[C@H]2[C@@H]3CC[C@@H]4C[C@H](O)CC[C@]4(C)[C@H]3C[C@H](O)[C@]12C [deoxycholic, deoxycholic acid]",–,pKa (first listed) [3]: 5.7
C[C@H](CCC(=O)NCC(=O)O)[C@H]1CC[C@H]2[C@@H]3[C@H](O)C[C@@H]4C[C@H](O)CC[C@]4(C)[C@H]3C[C@H](O)[C@]12C [glycocholic],–,pKa (first listed) [3]: 3.6
"CC(O)C(=O)O (stereo not shown) [lactic, lactic acid]",–,pKa (first listed) [3]: 3.95
O=C(O)/C=C\C(=O)O [maleic],–,pKa (first listed) [3]: 3.9
CCCCCCCC/C=C\CCCCCCCC(=O)O [oleic],–,pKa (first listed) [3]: 4.5
-Chymotrypsinogen (1CGI): human protein,2.4 days,–
Angiogenin (1A4Y): human protein,3.2 days,–
Annexin V (1ANX): human protein,33 days,–
Apoptosis regulator bax (1F16): human protein,26 days,–
Argininosuccinate lyase (1AOS): human protein,13 days,–
Carbonic anhydrase I (1HCB): human protein,6.8 days,–
Creatine kinase ( 1QK1): human protein,–,"T1/2 (half-life, deamidation) ([1]; pH 7.4): 84 days; T1/10 (time to 10% degradation by deamidation) ([1]; pH 7.4): 13 days"
Cyclophilin A (1AWQ): human protein,1.3 days,–
D-Glyceraldehyde-3-phosphate dehydrogenase (3GPD): human protein,–,"T1/2 (half-life, deamidation) ([1]; pH 7.4): 4.2 days; T1/10 (time to 10% degradation by deamidation) ([1]; pH 7.4): 0.64 days"
Fibroblast growth factor (2AFG): human protein,3.2 days,–
GTP-binding protein (1DOA): human protein,6.8 days,–
Growth hormone (1HGU): human protein,7.8 days,–

Molecule,"T1/10 (time to 10% degradation by deamidation) [1, 4]",also measured
Growth hormone receptor (1A22): human protein,0.36 days,–
Homeobox protein PAX-6 (6PAX): human protein,5.9 days,–
Insulin (2HIU): human protein,–,"T1/2 (half-life, deamidation) ([1]; pH 7.4): 260 days; T1/10 (time to 10% degradation by deamidation) ([1]; pH 7.4): 40 days"
Interleukin-1 (2I1B): human protein,43 days,–
Interleukin-4 (2CYK): human protein,41 days,–
Interleukin-6 (1IL6): human protein,8.5 days,–
Interleukin-8 (1IL8): human protein,14 days,–
Interleukin-10 (2ILK): human protein,3.8 days,–
Intestinal fatty acid binding protein (3IFB): human protein,–,"T1/2 (half-life, deamidation) ([1]; pH 7.4): 7.6 days; T1/10 (time to 10% degradation by deamidation) ([1]; pH 7.4): 1.2 days"
Lysophospholipase (1LCL): human protein,2.4 days,–
Malic enzyme (1EFK): human protein,–,"T1/2 (half-life, deamidation) ([1]; pH 7.4): 140 days; T1/10 (time to 10% degradation by deamidation) ([1]; pH 7.4): 21 days"
Mitogen-activated protein kinase P38 (1WFC): human protein,17 days,–
N-acetylgalactosamine-4-sulfatase (1FSU): human protein,0.93 days,–
NAD(P)H dehydrogenase (1QBG): human protein,53 days,–
Peptidyl-prolyl cis-trans isomerase (1F8A): human protein,0.36 days,–
Platelet factor 4-HPF4 (1RHP): human protein,35 days,–
Proinsulin (1EFE): human protein,17 days,–
Stem cell factor (1EXZ): human protein,27 days,–
Transforming growth factor-two (1KLA): human protein,70 days,–
Triose phosphate isomerase (1HTI): human protein,7.9 days,–

# From patent US9394339B2, “Stabilized formulations of peptides and proteins protecting against non-enzymatic degradation” (Lyotropic Therapeutics, Inc., priority 2007, dated 2016)
